Laboratory results taken from PMC9284731.

Key:
[1] = tested on: RBP10 fragment with only 10 residues C-terminal to the RRM (Trypanosoma brucei); test: EMSA; conditions: binding buffer for gel shifts not in material (only protein buffers: elution 50 mM NaH2PO4, 300 mM NaCl, 250 mM imidazole, pH 8.0); sometimes dialyzed to 10 mM …; scale: affinity relative to P1
[2] = tested on: RBP10 fragment with no residues C-terminal to the RRM (Trypanosoma brucei); test: EMSA; conditions: binding buffer for gel shifts not in material (only protein buffers: elution 50 mM NaH2PO4, 300 mM NaCl, 250 mM imidazole, pH 8.0); sometimes dialyzed to 10 mM …; scale: affinity relative to P1

Substance	binding signal [1]	binding signal [2]
probe with two copies of UA(U)6	< 0.1	< 0.1
probe with two copies of UACUCUCU (mutant)	< 0.1	< 0.1
